From patent publication US7888090B2, “Mutants of O6-alkylguanine-DNA alkyltransferase” (Ecole Polytechnique Federale de Lausanne, priority 2004, dated 2011)

How the values were obtained:
[1] = Periplasmic expression / stability under oxidizing conditions; design: species or system E. coli
Description: The activities towards AGT substrates are measured after purification without addition of reducing agents such as dithiothreitol or beta-mercaptoethanol. Alternatively, the activities of mutant AGT and wild type human are compared after their export into cellular compartments with oxidising redox potential (e.g. the periplasm of E. coli due to their fusion to appropriate signal sequences. Activity towards AGT substrates under reducing and oxidising conditions is compared by performing the reactions in the presence or absence of reducing agents such as dithiothreitol or beta-mercaptoethanol.
The mutant AGT gene of Example 1 is amplified and cloned as described in Example 1 with the oligonucleotides SEQ ID NO:3, SEQ ID NO:10 and SEQ ID NO:4, SEQ ID NO:9 causing the further mutation Cys62Ala in the gene upon their incorporation by PCR. Protein expression, purification and determination of yield is carried out as described in Example 1. The mutant gene is PCR amplified with the primers SEQ ID NO:11, SEQ ID NO:12 that contain SfiI restriction sites to subclone the gene in fusion to the g3 protein of filamentous phage in the vector pAK100 (Krebber et al., J Immunol Methods 201:35-55, 1997). […] The supernatant is directly subjected to quantification of protein yield via SDS-PAGE and activity assays as described in Example 1.
Stability under oxidizing conditions: The mutant gene is PCR amplified with the primers SEQ ID NO:11 and SEQ ID NO:28 to subclone the gene into pAK100, as described in Example 2. […] To compare the reactivity of […] (Juillerat et al., Chem Biol 10:313-317, 2003) and the mutant, samples are incubated with 1 µM BG-Bt for 50 min, quenched with SDS-Laemmli buffer and analyzed by western blotting using neutravidin peroxidase conjugate (Pierce) or a monoclonal mouse anti-FLAG IgG antibody (M2, Sigma) and a secondary anti-mouse-IgG::HRP conjugate, and Renaissance reagent plus (NEN). […] The anti-FLAG IgG antibody is used to estimate the total amount of soluble AGT protein, whereas neutravidin quantifies the reactive portion of it. […]

[2] = test system: oligonucleotide SEQ ID NO:2 (modified in position 14); experiment: Reactivity against DNA-based substrates (BG-Cy3 assay with BG-modified oligonucleotide); format: biochemical
Description: The ability of wild type AGT or mutant AGT to react with alkylated DNA substrates is measured as the reaction of its inactivation by a synthetic oligonucleotide containing O^6-benzylguanine (SEQ ID NO:2, modified in position 14). Subsequently, the reactions are quenched by incubation with biotinylated O^6-alkylguanine. Samples are subjected to Western blotting and detection with streptavidin derivates to obtain kinetic constants for these substrates. Alternatively, the ability of wild type or mutant AGT to react with alkylated DNA substrates is measured via its labeling efficiency in competition with a fluorescent substrate of AGT. The reaction kinetics of AGT with BG-Cy3 (O^6-benzylguanine coupled to Cy3) is followed by fluorescence intensity measurements at various concentrations of a competing synthetic oligonucleotide containing O^6-benzylguanine (SEQ ID NO:2, modified in position 14).
Reactivity against DNA-based substrates measured with a BG-Cy3 assay: BG-Cy3 is prepared by reacting the previously described O^6-(4-aminomethyl-benzyl)guanine (Keppler et al., NatureBiotechnol. 21:86-89, 2003) with the commercially available N-hydroxysuccinimide ester of Cy3, (Cy3-NHS, Amersham). The coupling reaction is performed at ambient temperature in N,N-dimethylformamide in the presence of 1 eq. of triethylamine. The BG-Cy3 conjugate is purified by reversed-phase HPLC on a C18-column by using linear gradients from 0.1% trifluoroacetic acid to acetonitrile. After solvent evaporation BG-Cy3 is dissolved in dimethyl sulfoxide and stored at −20° C. For measuring the reactivity with DNA-based substrates, a reaction mixture containing different concentrations (0 to 5 µM) of oligonucleotide SEQ ID NO:2 (modified in position 14), GST-AGT fusion protein at 0.2 µM and BG-Cy3 at […] in reaction buffer (50 mM HEPES, pH 7.2, 1 mM DTT, 200 mg/ml BSA) is incubated in microtiterplates. Fluorescence of the Cy3 derivative (excitation 519 nm, emission at 572 nm) is measured on a Spectramax Gemini plate reader (Molecular Devices).

[3] = Competition of N^9-substituted and N^9-unsubstituted O^6-benzylguanine substrates; format: biochemical
Description: Such N^9-substituted O^6-alkylguanine substrates are the natural substrates of the wild type AGT. The ability of wild type AGT or mutant AGT to react with N^9-modified O^6-alkylguanine substrates is measured as the rate of its reaction with such substrates, e.g. with the low molecular weight N^9-cyclopentyl-O^6-benzylguanine in presence of biotinylated N^9-unsubstituted O^6-alkylguanine substrates in competition experiments. Subsequently, samples are subjected to Western blotting and detection with streptavidin derivates to obtain kinetic constants for these substrates. Alternatively, the reactivity towards such substrates is measured as the inhibition of the reaction of AGT with BG-Cy3. The reaction of AGT with BG-Cy3 is followed by an increase of Cy3 fluorescence intensity upon binding to AGT, after preincubation or in direct competition with the N^9-modified O^6-alkylguanine substrate.
Selected AGT mutants are subcloned into pGEX2T, expressed, purified and characterized as described in Example 1. Discrimination between N^9 substituted and N^9 unsubstituted O^6-benzylguanine substrates is evaluated by competition experiments for purified mutated GST-AGT in vitro with N^9-substituted and N′-unsubstituted O^6-benzylguanine. Aliquots of 0.2 μM GST-AGT are incubated with varying concentrations of N^9 substituted substrate (0, 0.5, up to 100 µM) and 0.5 µM biotinylated O^6-benzylguanine (BG-Bt, substance 3a of Juillerat et al., Chem Biol 10:313-317, 2003) in 50 mM HEPES pH 7.3 and 1 mM DTT at room temperature. After 45 min reactions are quenched by the addition of SDS-Laemmli buffer and heat denaturation. Samples are subjected to SDS-PAGE and Western blotting analysis (neutravidin-peroxidase conjugate (PIERCE), Renaissance reagent plus (NEN)). The intensity of the corresponding bands is quantified by a Kodak Image Station 440.

B1: AGTM: AGT mutant Cys62Ala, Gln115Ser, Gln116His, Lys125Ala, Ala127Thr, Arg128Ala, Gly131Lys, Gly132Thr, Met134Leu, Arg135Ser, Cys150Asn, Ser151Ile, Ser152Asn, Asn157Gly, Ser159Glu, truncated after … (protein, UniProt P16455 1-207, looked up, variant C62A Q115S Q116H K125A A127T R128A G131K G132T M134L R135S C150N S151I S152N N157G S159E del183-207)
Methylated-DNA--protein-cystei …: MDKDCEMKRTTLDSPLGKLELSGCEQGLHEIKLLGKGTSAADAVEVPAPAAVLGGPEPLMQATAWLNAYFHQPEAIEEFPVPALHHPVFQQESFTRQVLWKLLKVVKFGEVISYSHLAALAGNPAATAAVKTALSGNPVPILIPCHRVVNINGAVGGYEGGLAVKEWLLAHEGHRLGKPGLG
modifications: His tag
- sensitivity to oxidation [1]: reduced sensitivity to oxidation
- reduced reactivity with DNA substrates (factor) [2]: ≥ 100
- reaction with BG-Cy3 in presence of BG-modified oligonucleotide ([2]; up to 5 µM BG-modified oligonucleotide): no reduction
- reduced reactivity with N^9-substituted O^6-alkylguanine derivatives (factor) [3]: ≥ 10
- reduced reactivity towards O^6-alkyl-N^9-deoxyribosylguanine or N^9-cyclopentyl-O^6-benzylguanine ([3]; comparator not stated): at least 100 fold
